Assay in all cases: pull-down
Test [1] deals with T1, WRC230WCA (human, UniProt Q7L576 1-1253; Q9Y2A7 1-1128; Q92558 1-230; Q92558 485-559; Q9NYB9 1-158; …).
For test [2], the target named is T2, ΔWRC230 (human, UniProt Q7L576 1-1253; Q9Y2A7 1-1128; Q92558 1-230; Q9NYB9 1-158; Q8WUW1 1-75).
The target of test [3] is T1, WRC230WCA. This is another data set of the same source.
Test [4] concerns the target T2, ΔWRC230. The source holds these as a separate data set.

Read-outs that look alike come from different tables or passages of the source.

B1: GST-Arf1 (natural protein)
chain: not shown
In the case of B1, the Kd in the test with WRC230WCA [1] is around 8.2 µM; in the test with ΔWRC230 [2], around 660 nM; with WRC230WCA [3], around 107 µM; with ΔWRC230 [4] it was around 22.6 µM.

Source of the values: publication doi:10.1101/2022.05.13.491857 (bioRxiv, 2022).
